Target: angiotensin-converting enzyme (ACE) (Homo sapiens, UniProt P12821)
Assay: ACE-inhibiting activity of peptide extracts
Type: biochemical
Conditions: purified single peptide released by L. helveticus A1 (HPLC fractionation, ion exchange)
Description: Purified strains with inoculum of 0.1% are incubated for 18 hours in 9% skimmed milk at 37° C. After adjusting the pH to 4.3 with 50% lactic acid the samples are centrifuged (5000 g, 10 min). Supernatant is dosed at reverse-phase cartridge and washed with water. The process is followed by elution with 60% acetonitrile in 0.1% trifluoroacetic acid and then evaporation and reconstitution of the resulting extract. The extract or its dilutions are analyzed for inhibition of ACE.
A total peptide extract is prepared. Enzymatic reaction is carried out by a conventional test, but using different dilutions of peptide extracts as their volume is 20 μl. The enzyme solution was 40 μl with an activity of 0.1 U/ml. The substrate hipuril-histidil-leucine is dissolved in borate buffer at pH 8.3 and has a volume of 190 μl. The final concentration of the substrate is 6 mM, and those of sodium chloride is 300 mM. The reaction is conducted at 37° C. for 30 minutes. The seizing is performed with 100 microliters of 4 n HCl, and the extraction of the freed hippuric acid is done with 1 ml of ethyl acetate. After evaporation of the solvent, the residue is dissolved in 1 ml of water and tested spectrophotometrically at 228 nm. […]
where A is the absorbance under the upper reaction, C is the absorbance without enzyme, B is the absorbance without the involvement of peptide extracts. […]

Sequence of angiotensin-converting enzyme (ACE) (P12821 30-1306, species assumed): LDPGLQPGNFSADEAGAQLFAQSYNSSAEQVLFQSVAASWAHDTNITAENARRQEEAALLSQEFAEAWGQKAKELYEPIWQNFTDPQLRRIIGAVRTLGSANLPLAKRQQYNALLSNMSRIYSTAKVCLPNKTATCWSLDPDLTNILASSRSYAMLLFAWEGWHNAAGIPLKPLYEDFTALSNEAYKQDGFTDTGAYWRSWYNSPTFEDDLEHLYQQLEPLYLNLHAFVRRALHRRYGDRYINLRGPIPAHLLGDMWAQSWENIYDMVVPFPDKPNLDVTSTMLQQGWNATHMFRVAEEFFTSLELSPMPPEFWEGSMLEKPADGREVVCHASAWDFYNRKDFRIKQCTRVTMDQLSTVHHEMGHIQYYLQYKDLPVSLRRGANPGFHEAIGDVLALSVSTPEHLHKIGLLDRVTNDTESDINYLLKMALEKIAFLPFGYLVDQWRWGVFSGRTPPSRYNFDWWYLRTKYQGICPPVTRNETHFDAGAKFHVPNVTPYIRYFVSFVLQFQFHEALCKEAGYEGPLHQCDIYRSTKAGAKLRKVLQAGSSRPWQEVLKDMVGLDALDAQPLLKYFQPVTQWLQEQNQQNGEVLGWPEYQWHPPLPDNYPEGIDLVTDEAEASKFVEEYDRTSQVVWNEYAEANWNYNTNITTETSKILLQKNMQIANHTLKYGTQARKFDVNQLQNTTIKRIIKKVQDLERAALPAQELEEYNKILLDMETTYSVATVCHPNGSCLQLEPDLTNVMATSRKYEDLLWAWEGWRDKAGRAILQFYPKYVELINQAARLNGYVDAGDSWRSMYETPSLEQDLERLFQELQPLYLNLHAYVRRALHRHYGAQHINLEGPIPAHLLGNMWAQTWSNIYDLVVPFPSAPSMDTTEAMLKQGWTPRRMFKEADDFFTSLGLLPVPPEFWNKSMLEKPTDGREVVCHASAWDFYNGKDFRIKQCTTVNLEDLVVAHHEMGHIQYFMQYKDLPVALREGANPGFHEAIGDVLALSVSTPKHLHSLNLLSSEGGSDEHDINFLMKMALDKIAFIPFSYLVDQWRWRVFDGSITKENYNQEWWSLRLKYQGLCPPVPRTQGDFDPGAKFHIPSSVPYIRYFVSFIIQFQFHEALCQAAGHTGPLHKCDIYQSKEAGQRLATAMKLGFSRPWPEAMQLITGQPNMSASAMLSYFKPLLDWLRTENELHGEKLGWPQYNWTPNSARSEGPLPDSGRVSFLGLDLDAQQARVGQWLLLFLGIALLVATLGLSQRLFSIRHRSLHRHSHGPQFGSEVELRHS

“Ala-Leu-Pro-Met (ALPM; printed: Ala-Leu-Pro-Met) [anti-ACE peptide released by the strain L. helveticus A1, purified from fermented milk]” gave an Anti-ACE activity % of 78.0%.

Source: patent publication US20140072544A1, “POLYBACTERIAL PREPARATION WITH HEALTH BENEFITS: ANTIOXIDANT EFFECT, REDUCTION OF CHOLESTEROL CONCENTRATION, ANTI-INFLAMMATORY IMMUNOMODULATING EFFECT AND RELEASE OF BIOACTIVE PEPTIDES INHIBITING ANGIOTENSIN-CONVERTING ENZYME” (LB BULGARICUM PLC, priority 2011, published 2014)
